Assay results as given in publication PMC10022624, “A mini-TGA protein modulates gene expression through heterogeneous association with transcription factors” (Plant Physiology, 2022).

T1: StTGA2.3 (Solanum tuberosum cv. Rywal, UniProt A0A9F1U446 1-327)
T1 sequence: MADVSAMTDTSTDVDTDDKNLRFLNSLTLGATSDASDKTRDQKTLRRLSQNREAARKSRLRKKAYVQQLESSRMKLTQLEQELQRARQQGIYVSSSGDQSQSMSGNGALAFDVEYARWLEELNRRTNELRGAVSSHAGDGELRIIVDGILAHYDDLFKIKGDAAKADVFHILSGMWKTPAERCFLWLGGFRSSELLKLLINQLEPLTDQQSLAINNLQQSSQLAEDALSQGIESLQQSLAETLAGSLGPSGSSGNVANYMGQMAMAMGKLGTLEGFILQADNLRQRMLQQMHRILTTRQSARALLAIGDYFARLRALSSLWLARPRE

T2: StTGA2.1 (mini-TGA) (Solanum tuberosum cv. Rywal, UniProt A0A9F1U434 1-270)
T2 sequence: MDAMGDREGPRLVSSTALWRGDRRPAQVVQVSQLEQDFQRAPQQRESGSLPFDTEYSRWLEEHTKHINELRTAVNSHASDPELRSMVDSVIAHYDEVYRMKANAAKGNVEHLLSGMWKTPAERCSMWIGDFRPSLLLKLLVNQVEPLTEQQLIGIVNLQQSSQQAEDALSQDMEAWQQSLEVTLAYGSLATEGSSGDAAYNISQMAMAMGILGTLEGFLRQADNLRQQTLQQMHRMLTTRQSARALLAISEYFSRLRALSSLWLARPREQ

T3: StTGA2.3;StTGA2.1 (mini-TGA) (Solanum tuberosum cv. Rywal;Solanum …, UniProt A0A9F1U446;A0A9F1U434 1-327;1-270, |)
T3 sequence 1: T1 sequence
T3 sequence 2: T2 sequence

B1: PRX07p_1 (dsDNA)
DNA 1: GTTACTACTCGAGCGTGTGCCCAACGTCACAATCC
DNA 2: GGATTGTGACGTTGGGCACA
B2: PRX15p_1 (dsDNA)
DNA 1: GTTACTACTCGAGCGTTTAATAATGATGACATTTG
DNA 2: CAAATGTCATCATTATTAAA
B3: His6-tagged StTGA2.1, recombinant (natural protein, potato (Solanum tuberosum), UniProt A0A9F1U434 1-270, looked up)
chain: T2 sequence
notes: StTGA2.1, potato (Solanum tuberosum) cultivar Rywal; full-length cds in pMCSG7; C-terminal region printed as aa 47-240; Dimer by SEC elution volume; The tag is removable by TEV protease; not shown: His6, N-terminal, kept
B4: PRX07p_2 (dsDNA)
DNA 1: GTTACTACTCGAGCGTTAGGGGTGACGTTTCCAAT
DNA 2: ATTGGAAACGTCACCCCTAA
B5: PRX46p (dsDNA)
DNA 1: GTTACTACTCGAGCGTGAACCTGAGGTCAACCGTT
DNA 2: AACGGTTGACCTCAGGTTCA

Columns and labels:
[1] = target: HA-tagged StTGA2.3, expressed in N. benthamiana (potato (Solanum tuberosum))
StTGA2.3 [2] = target: T1, StTGA2.3; assay: SPR; 1 mM Mg2+; dose-dependent response; SPR Biacore T200, 25 C, 25 mM Tris pH 7.4, 140 mM NaCl (180 mM for StTGA2.1 alone), 1 mM MgCl2, 0.005% P20; conditions: protein: ivt; tags: C-terminal GS peptide; chain copies: 2; 5' overhang 15 nt on strand 1
StTGA2.1 (mini-TGA) = target: T2, StTGA2.1 (mini-TGA); assay: SPR; 18.75-300 nM protein; 180 mM NaCl; 1 mM Mg2+; SPR Biacore T200, 25 C, 25 mM Tris pH 7.4, 140 mM NaCl (180 mM for StTGA2.1 alone), 1 mM MgCl2, 0.005% P20; conditions: protein: recombinant; tags: N-terminal His6; chain copies: 2; 5' overhang 15 nt on strand 1
[3] = target: T3, StTGA2.3;StTGA2.1 (mini-TGA); assay: SPR; premixed with 300 nM StTGA2.1; higher response than StTGA2.3 alone; SPR Biacore T200, 25 C, 25 mM Tris pH 7.4, 140 mM NaCl (180 mM for StTGA2.1 alone), 1 mM MgCl2, 0.005% P20; conditions: protein: ivt;recombinant; tags: C-terminal GS peptide;N-terminal His6; copies: 1;1; 5' overhang 15 nt on strand 1
StTGA2.3 [4] = target: T1, StTGA2.3; assay: SPR; 1 mM Mg2+; interaction negligible; SPR Biacore T200, 25 C, 25 mM Tris pH 7.4, 140 mM NaCl (180 mM for StTGA2.1 alone), 1 mM MgCl2, 0.005% P20; conditions: protein: ivt; tags: C-terminal GS peptide; chain copies: 2; 5' overhang 15 nt on strand 1
[5] = target: the molecule itself; assay: SEC; His6-tagged StTGA2.1; oligomeric state from elution volume against the Gel Filtration LMW calibration kit; 30 mM Tris pH 7.5, 400 mM NaCl

| Molecule | binding result (StTGA2.3 [2]) | binding result (StTGA2.1 (mini-TGA)) | binding result [3] | binding result (StTGA2.3 [4]) | also measured |
| --- | --- | --- | --- | --- | --- |
| StTGA2.1, GFP- or HA-tagged, expressed in N. benthamiana (natural protein) |  |  |  |  | StPRX07::LucF promoter activity (luciferase transactivation assay) in N. benthamiana leaves coexpressing GFP-tagged StTGA2.1 and BFP-tagged StTGA2.3, compared to control [1]: > 2 fold |
| B1 | binds | no binding | binds |  |  |
| B2 |  | no binding |  | no binding |  |
| B3 |  |  |  |  | stoichiometry N [5]: 2 |
| B4 | binds | no binding | binds |  |  |
| B5 |  | no binding |  | no binding |  |
